The record followed here is patent publication US20260102485A1 (CEDARS SINAI MEDICAL CENTER, published 2026).

Positions count from the first letter of the chain named.

The chains are these.
T1: human TL1A (hTL1A) antigen (human, UniProt O95150 58-251, limits assumed)
T1 construct: also called TNFSF15
T1 sequence (looked up): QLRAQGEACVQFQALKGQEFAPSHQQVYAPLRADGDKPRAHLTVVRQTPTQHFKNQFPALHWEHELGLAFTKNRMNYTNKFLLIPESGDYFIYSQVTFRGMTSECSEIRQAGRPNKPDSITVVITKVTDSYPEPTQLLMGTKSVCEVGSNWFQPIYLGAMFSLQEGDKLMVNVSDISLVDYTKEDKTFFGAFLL

T2: murine TL1A (murine, UniProt Q5UBV8 94-252, limits assumed)
T2 sequence (looked up): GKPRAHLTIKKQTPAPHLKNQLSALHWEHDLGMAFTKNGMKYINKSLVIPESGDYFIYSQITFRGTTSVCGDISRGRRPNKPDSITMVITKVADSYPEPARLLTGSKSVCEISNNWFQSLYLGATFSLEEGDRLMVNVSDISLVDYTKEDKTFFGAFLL

B1: 9E12E5 (antibody, V domains shown)
VH: QVHLQQSGPELVKPGASVKLSCKASGYTFTKYDINWVRQRPEQGLEWIGWIFPGDGRTDYNEKFKGKATLTTDKSSSTAYMEVSRLTSEDSAVYFCARYGPAMDYWGQGTSVTVAS
VL: DVLMTQTPLSLPVSLGDQASISCRSSQTIVHSNGDTYLDWFLQKPGQSPKLLIYKVSNRFSGVPDRFSGSGSGTDFTLKISRVEAEDLGVYYCFQGSHVPYTFGGGTKLEIK
notes: Mouse hybridoma monoclonal antibody; also called 684842-6; anti-TL1A antibody 9E12E5
B2: 5C3D11 (antibody, V domains shown)
VH: EVQLQQSGAELVKPGASVKLSCTASGFDIQDTYMHWVKQRPEQGLEWIGRIDPASGHTKYDPKFQVKATITTDTSSNTAYLQLSSLTSEDTAVYYCSRSGGLPDVWGAGTTVTVSS
VL: QIVLSQSPAILSASPGEKVTMTCRASSSVSYMYWYQQKPGSSPKPWIYATSNLASGVPDRFSGSGSGTSYSLTISRVEAEDAATYYCQQWSGNPRTFGGGTKLEIK
notes: Mouse hybridoma monoclonal antibody; also called 684842-3; anti-TL1A antibody 5C3D11
B3: AS12824 (antibody, V domains shown)
VH: QVQLVQSGAEVKKPGASVKVSCKASGFDICDTYMHWVKQRPGQGLEWIGRIDPASGHTKYDPKFQVRATITTDTSTSTAYLELSSLRSEDTAVYYCARSGGLPDVWGQGTTVTVSS
VL: EIVLTQSPGTLSASPGERATMSCRASSSVSYMYWYQQKPGQAPRPWIYATSNLASGVPDRFSGSGSGTDYTLTISRVEPEDFAVYYCQQWSGNPRTFGGGTKLEIK
notes: Humanized 5C3D11 clone from a phage display library; also called 15
B4: AS12825 (antibody, V domains shown)
VH: B3 VH with R40A, I48M, I70M, A97S
VL: B3 VL with A19V, P45L, W46L, Y70F
notes: Humanized 5C3D11 clone from a phage display library; also called 16
B5: AS12816 (antibody, V domains shown)
VH: B3 VH with T72R, A97S
VL: B3 VL with A19V, M21L, Y70F, V77L
notes: Humanized 5C3D11 clone from a phage display library
B6: AS12823 (antibody, V domains shown)
VH: B3 VH with V20L, K38R, I70M, A79V
VL: B3 VL with A13L, V57I, Y70F
notes: Humanized 5C3D11 clone from a phage display library; also called 14
B7: AS12819 (antibody, V domains shown)
VH: B3 VH with K12V, V20L, K38R, I48M, A68V, I70M, A79V
VL: B3 VL with A13L, A19V, Y70F, L103V
notes: Humanized 5C3D11 clone from a phage display library; also called 10

The target in the first assay is T1, human TL1A (hTL1A) antigen. The assay is described as follows: Biacore (SPR), TL1A as analyte. Background: In SPR one partner is held on a chip, and binding of the other changes the refractive index at the surface.
As usually defined, the Kd is the equilibrium constant for the complex coming apart. For B1, binding was characterised by a dissociation constant (Kd) of 0.52 nM. This counts as sub-nanomolar.

Molecule B2 came in with a Kd of 0.079 nM.

A further assay deals with T1, human TL1A (hTL1A) antigen. The assay is described as follows: cell-based or functional assay.
For B1, the “EC50, inhibition of human TL1A induced IFN-γ production (percent of IFN-γ production without inhibitor)” value is 2.4 nM.

For the next assay, the target named is T1, human TL1A (hTL1A) antigen. The assay is described as follows: cell-based or functional assay. This is another data set of the same source.
Regarding B2, the “EC50, inhibition of human TL1A induced IFN-γ production (percent of IFN-γ production without inhibitor)” value was 1 nM.

Another assay deals with T1, human TL1A (hTL1A) antigen. The assay is described as follows: SPR, affinity ranking, clone as ligand.
A word on the koff: it is the rate constant with which the complex falls apart. Read a high koff as a short-lived complex. Broadly, the kon is the second-order rate constant of association. A high value points to faster complex formation. Molecule B3 came in with a Kd of 0.0163 nM, a koff of 1.69e-05 s⁻¹ and a kon of 1.03e+06 M⁻¹ s⁻¹.

As to B4, the Kd was 0.105 nM, the koff amounted to 5.45e-05 s⁻¹ and the kon was determined as 518000 M⁻¹ s⁻¹.

For B5, the Kd amounted to 0.062 nM, the koff was determined as 4.73e-05 s⁻¹ and the kon was 763000 M⁻¹ s⁻¹.

In turn, B6 registered a dissociation constant Kd of 0.0424 nM, an off-rate constant (koff) of 3.66e-05 s⁻¹ and a kon of 864000 M⁻¹ s⁻¹.

The molecule B7 gave a Kd of 0.0462 nM, a koff of 3.81e-05 s⁻¹ and a kon of 825000 M⁻¹ s⁻¹.

The next assay has as its target T1, human TL1A (hTL1A) antigen. The assay is described as follows: SPR, multi-cycle, antibody as ligand, TL1A analyte.
B3: the kon was determined as 1.07e+06 M⁻¹ s⁻¹.

Molecule B5 gave a kon of 819000 M⁻¹ s⁻¹.

Take B6: the kon came to 1.11e+06 M⁻¹ s⁻¹.

B7 registered a kon of 946000 M⁻¹ s⁻¹.

For another assay, the target named is T2, murine TL1A. Description: MSD electrochemiluminescence plate assay, antibody titrated on plates coated with murine TL1A. The protocol:
Anti-human TL1A monoclonal antibodies 9E12E5 and 5C3D11 neutralize the activity of human TL1A in vitro. […] MSD plates were coated with murine TL1A and incubated with various concentrations of 5C3D11 or 9E12E5 to evaluate the ability of the antibody to recognize murine TL1A, as shown in FIG. 6. Human TL1A was included as a positive control. 5C3D11 recognizes murine TL1A in a concentration dependent manner. The binding profile of both the 5C3D11 and 9E12E5 antibodies were assessed using a TL1A transfected HEK293 cell line and compared to the untransfected parental HEK293 cell line. Fluorescent staining of the anti-TL1A antibodies in TL1A expressing HEK293 cells is compared to the untransfected parental HEK293 cells, as shown in FIG. 7.
For B1, the binding result is listed as “no binding (tested: 100 ng/ml)”.
